Test results as given in the supplement of paper PMC6757056.
± gives the standard deviation of the averaged measurements.

B1: library; a variant is named by its letters at N, in order (parent)
chain: GCUGUCACCGGUGUAUUACCCUAGUGGUCGACCGGUCUGAUGAGUCUNNNNNNAGACGAAACAGC

Columns and labels:
hypoxanthine [1] = variants of: B1; assay: FACS-Seq fitted mean relative fluorescence mCherry/BFP without ligand (log10 relative fluorescence); ligand: hypoxanthine (xanthine aptamer); higher = higher reporter protein expression; details: HEK293T, ligand present: no
Procedure, shortened: (§1)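 Fluorescence values are fitted normal means of bin counts along the mCherry/BFP axis. HEK293T libraries lentivirally carrying the ribozyme switch in an mCherry reporter, with an EF1α-BFP marker, were enriched, exposed to ligand or not for 48 h, and sorted into 6 bins. Genomic DNA per bin was PCR-amplified, barcoded and run on MiSeq. Means of log10(mCherry/BFP) were scaled to five spiked-in control ribozymes.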

hypoxanthine [2] = variants of: B1; assay: normalized RNA/DNA level with ligand (relative to sTRSVctl = 100) (log10 (% of sTRSVctl)); ligand: hypoxanthine (xanthine aptamer); higher = less ribozyme self-cleavage, higher mRNA level; details: ligand concentration (+) RNA-Seq: 5 mM, HEK293T, reporter: mCherry (pCS4076), ligand present: yes
Procedure, shortened: (§2)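 Library plasmids encoding reporter-linked ribozyme switches (mCherry, or eGFP for some folinic acid experiments) were transfected into HEK293T at 4 µg per 6-well well. Ligand, when used, was added 1 h before transfection. Total RNA was extracted with EDTA 72 h later, then reverse-transcribed, amplified, barcoded and sequenced. RNA level was RNA reads over DNA reads, divided by a spiked-in non-cleaving control (or the top 25 sequences), ×100, log10; only sequences with ≥100 DNA reads were kept.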

hypoxanthine [3] = variants of: B1; assay: normalized RNA/DNA level without ligand (relative to sTRSVctl = 100) (log10 (% of sTRSVctl)); ligand: hypoxanthine (xanthine aptamer); higher = less ribozyme self-cleavage, higher mRNA level; details: HEK293T, reporter: mCherry (pCS4076), ligand present: no
Procedure, shortened: as §2

hypoxanthine [4] = variants of: B1; assay: FACS-Seq fitted mean relative fluorescence mCherry/BFP with ligand (log10 relative fluorescence); ligand: hypoxanthine (xanthine aptamer); ligand concentration (+) FACS-Seq: 5 mM; higher = higher reporter protein expression; details: HEK293T, ligand present: yes
Procedure, shortened: as §1

Row | Variant | FACS-Seq fitted mean (log10) (hypoxanthine [1]) | normalized RNA/DNA level with ligand (log10) (hypoxanthine [2]) | normalized RNA/DNA level without ligand (log10) (hypoxanthine [3]) | FACS-Seq fitted mean (log10) (hypoxanthine [4])
1 | GGAUGA | 0.427 ± 0.085 | 1.89 ± 0.035 | 1.618 ± 0.0099 | 0.633 ± 0.029
2 | GGAUGC | -0.0215 ± 0.024 | 1.85 ± 0.066 | 1.47 ± 0.075 | 0.483 ± 0.029
3 | UGACGU | -0.0405 ± 0.16 | 1.91 ± 0.021 | 1.57 ± 0.064 | 0.226 ± 0.05
4 | UGACGG | 0.484 ± 0.018 | 1.9 ± 0.022 | 1.486 ± 0.01 | 0.646 ± 0.032
5 | UGAGUG | 0.274 ± 0.026 | 1.9 ± 0.0079 | 1.64 ± 0.047 | 0.263 ± 0.019
6 | UGAGUC | 0.177 ± 0.08 | 1.99 ± 0.004 | 1.97 ± 0.025 | -0.0516 ± 0.012
7 | CGAUAG | 0.613 ± 0.0027 | 1.86 ± 0.12 | 1.7 ± 0.063 | 0.639 ± 0.052
8 | CGAUAC | -0.0585 ± 0.029 | 1.894 ± 0.0067 | 1.69 ± 0.019 | 0.176 ± 0.056
9 | CGAUAA | 0.668 ± 0.13 | 1.86 ± 0.047 | 1.57 ± 0.022 | 0.637 ± 0.12
10 | GGCGUG | 0.107 ± 0.021 | 1.91 ± 0.088 | 1.52 ± 0.022 | 0.291 ± 0.076
11 | GGCGAU | 0.679 ± 0.071 | 1.97 ± 0.062 | 1.9 ± 0.063 | 0.587 ± 0.0063
12 | UGAUAU | 0.0888 ± 0.12 | 1.96 ± 0.028 | 1.776 ± 0.016 | 0.0923 ± 0.28
13 | AGCCUG | 0.523 ± 0.04 | 1.92 ± 0.059 | 1.5724 ± 0.00079 | 0.67 ± 0.037
14 | AGCCUU | 0.466 ± 0.071 | 1.97 ± 0.022 | 1.933 ± 0.0025 | 0.317 ± 0.091
15 | UGCUGA | 0.117 ± 0.0063 | 1.92 ± 0.013 | 1.68 ± 0.021 | 0.0171 ± 0.11
16 | AGCGGA | 0.427 ± 0.044 | 1.945 ± 0.0055 | 1.71 ± 0.036 | 0.456 ± 0.021
17 | AGCGGG | 0.579 ± 0.16 | 1.9573 ± 0.00092 | 1.754 ± 0.0053 | 0.732 ± 0.094
18 | CGCGGG | 0.374 ± 0.021 | 1.84 ± 0.026 | 1.36 ± 0.036 | 0.72 ± 0.051
19 | AGCGUG | 0.152 ± 0.014 | 1.798 ± 0.014 | 1.37 ± 0.042 | 0.398 ± 0.032
20 | AGCGUC | 0.8 ± 0.033 | 1.971 ± 0.0074 | 1.966 ± 0.01 | 0.743 ± 0.075
21 | CGCGCC | 0.276 ± 0.055 | 1.93 ± 0.021 | 1.96 ± 0.044 | 0.445 ± 0.033
22 | AGAUGG | -0.23 ± 0.04 | 1.84 ± 0.035 | 1.36 ± 0.019 | 0.0811 ± 0.0062
23 | AGAUGU | 0.466 ± 0.021 | 1.9 ± 0.037 | 1.56 ± 0.031 | 0.748 ± 0.053
24 | AGAUGA | 0.409 ± 0.022 | 1.93 ± 0.05 | 1.65 ± 0.034 | 0.591 ± 0.025

Row | Variant | FACS-Seq fitted mean (log10) (hypoxanthine [1]) | normalized RNA/DNA level with ligand (log10) (hypoxanthine [2]) | normalized RNA/DNA level without ligand (log10) (hypoxanthine [3]) | FACS-Seq fitted mean (log10) (hypoxanthine [4])
25 | CGCUAG | 0.118 ± 0.0022 | 1.89 ± 0.063 | 1.79 ± 0.051 | 0.183 ± 0.14
26 | GGCAGA | 0.082 ± 0.022 | 1.921 ± 0.0091 | 1.51 ± 0.065 | 0.449 ± 0.062
27 | GGCAGU | 0.196 ± 0.14 | 1.98 ± 0.04 | 1.85 ± 0.046 | 0.205 ± 0.0051
28 | GGCAGC | 0.306 ± 0.06 | 1.921 ± 0.012 | 1.603 ± 0.0027 | 0.651 ± 0.043
29 | GGAUCG | 0.142 ± 0.037 | 1.95 ± 0.053 | 1.6404 ± 0.0014 | 0.517 ± 0.05
30 | AGCCCG | -0.024 ± 0.027 | 1.956 ± 0.0061 | 1.61 ± 0.087 | 0.388 ± 0.038
31 | AGCCCA | 0.0335 ± 0.1 | 1.923 ± 0.018 | 1.88 ± 0.025 | -0.145 ± 0.064
32 | CGAGGG | -0.0981 ± 0.041 | 1.8 ± 0.077 | 1.3 ± 0.047 | 0.0226 ± 0.19
33 | CGAGGU | 0.491 ± 0.077 | 1.96 ± 0.027 | 1.86 ± 0.019 | 0.625 ± 0.12
34 | GGCUCA | 0.301 ± 0.011 | 1.98 ± 0.031 | 1.91 ± 0.074 | 0.297 ± 0.024
35 | AGAUAC | 0.757 ± 0.025 | 1.91 ± 0.052 | 1.74 ± 0.029 | 0.699 ± 0.065
36 | AGAUAA | 0.265 ± 0.036 | 1.88 ± 0.022 | 1.75 ± 0.042 | -0.0706 ± 0.047
37 | AGAGUA | 0.5286 ± 0.0017 | 1.892 ± 0.0036 | 1.7 ± 0.034 | 0.675 ± 0.034
38 | CGAUUC | 0.279 ± 0.048 | 1.976 ± 0.0063 | 1.89 ± 0.02 | 0.313 ± 0.0095
39 | CGAUUA | 0.312 ± 0.038 | 1.9239 ± 0.001 | 1.64 ± 0.034 | 0.569 ± 0.13
40 | CGAUUU | 0.4582 ± 0.0022 | 1.92 ± 0.089 | 1.847 ± 0.012 | 0.5218 ± 0.0046
41 | AGAGCG | 0.488 ± 0.026 | 1.81 ± 0.024 | 1.401 ± 0.002 | 0.431 ± 0.067
42 | AGACUC | 0.486 ± 0.012 | 1.944 ± 0.016 | 1.94 ± 0.034 | 0.646 ± 0.01
43 | AGACUU | 0.58 ± 0.039 | 1.946 ± 0.008 | 1.9 ± 0.021 | 0.5558 ± 0.0047
44 | AGCAAU | 0.645 ± 0.018 | 1.9127 ± 0.00078 | 1.8332 ± 0.00014 | 0.608 ± 0.03
45 | AGCAAC | 0.133 ± 0.046 | 1.91 ± 0.054 | 1.79 ± 0.043 | 0.1066 ± 0.00061
46 | AGCAAG | 0.616 ± 0.025 | 1.81 ± 0.024 | 1.45 ± 0.056 | 0.87 ± 0.096
47 | UGAUGA | 0.599 ± 0.053 | 1.906 ± 0.0054 | 1.58 ± 0.035 | 0.575 ± 0.14
48 | UGCUCA | 0.419 ± 0.016 | 1.94 ± 0.0052 | 1.98 ± 0.061 | 0.498 ± 0.057

Row | Variant | FACS-Seq fitted mean (log10) (hypoxanthine [1]) | normalized RNA/DNA level with ligand (log10) (hypoxanthine [2]) | normalized RNA/DNA level without ligand (log10) (hypoxanthine [3]) | FACS-Seq fitted mean (log10) (hypoxanthine [4])
49 | UGAGCC | 0.846 ± 0.017 | 2.003 ± 0.02 | 1.94 ± 0.051 | 0.805 ± 0.11
50 | UGAGCG | 0.3069 ± 0.0029 | 1.9 ± 0.049 | 1.7 ± 0.043 | 0.323 ± 0.026
51 | UGAGCU | 0.136 ± 0.16 | 1.918 ± 0.018 | 1.904 ± 0.017 | -0.0419 ± 0.064
52 | GGAGAA | 0.538 ± 0.019 | 1.92 ± 0.022 | 1.68 ± 0.053 | 0.643 ± 0.034
53 | GGAGAC | -0.358 ± 0.15 | 1.86 ± 0.066 | 1.75 ± 0.086 | 0.13 ± 0.024
54 | GGAGAG | 0.274 ± 0.052 | 1.81 ± 0.058 | 1.3 ± 0.017 | 0.507 ± 0.023
55 | GGCGGA | 0.416 ± 0.079 | 1.98 ± 0.043 | 1.837 ± 0.013 | 0.534 ± 0.03
56 | GGCGCA | 0.59 ± 0.026 | 1.977 ± 0.0052 | 1.893 ± 0.0039 | 0.6023 ± 0.0039
57 | AGCCAU | -0.282 ± 0.012 | 1.92 ± 0.052 | 1.78 ± 0.027 | 0.15 ± 0.033
58 | AGCCAA | 0.57 ± 0.1 | 1.888 ± 0.017 | 1.8 ± 0.028 | 0.566 ± 0.067
59 | AGCCAG | 0.512 ± 0.025 | 1.89 ± 0.024 | 1.591 ± 0.007 | 0.71 ± 0.041
60 | UGAUCG | 0.52543 ± 0.00029 | 1.93 ± 0.02 | 1.81 ± 0.025 | 0.589 ± 0.045
61 | UGCGGC | 0.67 ± 0.028 | 1.98 ± 0.035 | 1.9 ± 0.071 | 0.708 ± 0.037
62 | UGCGGA | 0.465 ± 0.014 | 1.87 ± 0.056 | 1.518 ± 0.0062 | 0.733 ± 0.033
63 | UGCAAG | 0.123 ± 0.078 | 1.853 ± 0.0049 | 1.72 ± 0.021 | 0.179 ± 0.031
64 | UGCAAA | 0.613 ± 0.029 | 1.879 ± 0.0083 | 1.787 ± 0.017 | 0.635 ± 0.019
65 | GGCAUG | 0.213 ± 0.11 | 1.88 ± 0.058 | 1.45 ± 0.042 | 0.621 ± 0.098
66 | CGAUGG | 0.217 ± 0.024 | 1.89 ± 0.029 | 1.42 ± 0.087 | 0.628 ± 0.045
67 | AGCCGA | 0.399 ± 0.018 | 1.925 ± 0.0069 | 1.68 ± 0.027 | 0.547 ± 0.036
68 | AGCCGG | -0.0509 ± 0.035 | 1.91 ± 0.012 | 1.67 ± 0.02 | 0.305 ± 0.055
69 | CGAGCA | 0.378 ± 0.011 | 1.942 ± 0.0082 | 1.716 ± 0.012 | 0.543 ± 0.087
70 | AGAGAA | 0.479 ± 0.04 | 1.882 ± 0.0051 | 1.69 ± 0.047 | 0.467 ± 0.0095
71 | AGAGAU | 0.123 ± 0.09 | 1.85 ± 0.052 | 1.731 ± 0.0098 | -0.481 ± 0.049
72 | AGAGAG | 0.482 ± 0.014 | 1.75 ± 0.036 | 1.32 ± 0.069 | 0.443 ± 0.038
